Assay results: patent publication US20150351390A1, “COMPOSITIONS AND METHODS FOR AUXIN-ANALOG CONJUGATION” (PIONEER HI-BRED INTERNATIONAL, INC., priority 2012, published 2015)

B1: GmGH3-6: GH3 protein, accession XP_003540891.1 (protein)
chain: MPQHQPTLMEPVLSYNNSTNNGNGNSDYDIISWFEDVSQNAGFVQTQLLFQILKQNYGVEYLKKWLGSYNILEMDACALESLFSSVVPLASHADFEPFIQRIADGDTAPLLTQQPITTLSLSSGTTEGRQKFVPFTRHSAQTTLQIFTLAAAYRSRIYPIRQGGRILEFIYSSNRFKTKGGLTVGTATTHYYASEEFNIKQHKTKSFTCSPQEVISGGDYKQSTYCHLLLGLFFSDQVEFITSAFIYSMVQAFTTFEELWREICNDIRDGTLSSRIKSPKMRKAVLDIISPNPNLAAKLEDACKGLEVVDWFGLIPKLWPNAKYVYSIMTGSMQPYLKKLRHYANGLPLVSADYGSTESWIGVNVDPSLPPEDVTFAVVPTFSYFEFIPLHRNEKNFSSGGDDFIEDKPIPLSQIKVGQEYEVVLTTFTGLYRCRLGDVVEVAGFHNGTPKLNFVCRRKLILTINIDKNTEKDLQLVVERGSHILNMTSRGELVDFTSYADVSKQPGHYVIYWEIKGEVEDKILGACCNEMDKSFADHGYVVSRKTNSIGPLELCVLESGTFKKILDSFIANGAALSQFKTPRCTNNHVLLKILNTCTTKKFRSTAYNSSMEQ
modifications: Glycine max
B2: SlGH3-8: GH3 protein, Solyc07g054580.2 (protein, listed as Solanum lycopersicum)
chain: MTNINCKDKIETDIIGWFDEVADDSAVVQRRTLRRILEMNHGVEYLKKWIGDIKIEEIDENLLESTYASLVPLASHADIEPFTKRIADGDTTPLLTQQPITNLSLSSGTTDGRQKFVPFTHHSSQTTLQIFKLAAAYRSRIYPIRRGGRILEFIYSSKQCKTKGGIIVGTATTHYYASDEFKIKQQQTKSFTCSPQEVISCGDYKQSTYCHLLLGLYFSHEVEFVTSAFAYSIVEAFRSFEEMWKELCHDIREGSLSSIINIDKVRKSVSGITQPNPELASRIESICVELERADWFSIIPKLWPNAKYVYSIMTGSMMPYLTKLRHYAGELPLVSADYGSTESWIGVNLDPSNPPEKVTFAVVPTFSYFEFIPLYKHKSNYNYQNVNLNSTNDDYIEGNSMPLCQVKSGQQYEIVITTFTGLYRYRLGDVVEVDGFYKKTPKLNFICRRNLILAINIDKNTEKDLQLVVERGARILSKGTRRAELVDFTSHANVTKQPGHYVIYWEIKGEIDEKVLDECCRDMDASFVDHGYVVSRRTKSIGPLELCIVERGTFKKILESYIGNGAALSQFKTPRCTSNKELLNILNVCTIKRFYSTAYG
B3: GmGH3-10: GH3 protein, accession XP_003541929.1 (protein)
chain: MPEAPKHLCHDPKDNLDDDDDDGSSNNNKRALEYIEEVTTNADEIQEKVLAQILSRSANAEYLQRHGLEGRTDRNTFKNIMPVVTYEDLKPDIDRIANGDTSPILCSKPISEFLTSSGTSGGERKLMPTIEEELERRSMLYSLLMPVMDQFVPDLDKGKGMYFLFTKSEAKTPGGLLARPVLTSYYKSSHFKHRKHDPYTNYTSPNETILCHDSYQSMYSQLLCGLYQNEEVLRVGAVFASGFIRALKFLEKHFVCLCNDIRTGTLDAKITDPSVREAVMKVLKPNPTLADFVETECMKGSWKGIITRIWPNTKYVDVIVTGTMSQYIPILDYYSNGLPLVCTMYASSECYFGLNLNPSCDPSEVAYTLIPTMAYFEFLPLDEINGHTNSISQLEQEHLVDLADVKLGQEYELVVTTYAGLYRYRVGDILRVAGFKNKAPQFNFVCRKNVVLSIDSDKTDEVELHNAVKSGAEQLAEFNASLTEYTSCVDTSTIPGHYVLYWEISTNDHTPTIPSSVFGHCCLSIEESLNSVYRQGRVSESIGPLEIKVVENGTFDKLMDFALSQGASINQYKTPRCVTYAPILDLLNSKVLSSYISPKCPNWVPGHKDWCTLH
modifications: Glycine max
B4: SlGH3-14: GH3 protein, SGN-E745758 (protein, listed as Solanum lycopersicum)
chain: MKMMVENIEKKFDAEEVIEDFEVLTKDAGRIQEETLEKILKENGGTEYLKQWGLNGRTDVETFKACVPIVGHNDLEPYIQRIADGDLSPILTGKPIETISLSSGTTQGKPKFVPFNDELMDSTMQIFKTSFAFRNREFPIGNGKALQFIYSSKQFKTKGGLAAGTATTNVYRNAQFKKTMNAMSTPVCSPDEVIFGPDFQQSLYCHLLSGLIFRDEVQVVSSTFAHSIVHAFRTFEQVWEELVVDIREGVLSSRVTVPSIRLAMSKLLKPDPELAETIYSKCSSLSNWYGLIPELFPNTKYIYGIMTGSMEPYLKKLRHYAGELPLLSADYGSSEGWVGVNVNPKFPPEMVTYAVLPNIGYFEFLPLEENLVGVEQANSPVGLTEVKLGEEYEIVFTNFAGLYRYRLGDVVKIKGFHNGTPELQFVCRRNLLLSINIDKNTEKDLQLAVEAAGKHLVDEKLEVMDFTSHVNVSADPGHYVIFWELSGEATDEILQECCNCLDKSFLDAGYVSSRKVNAIGALELRIVKRGTFHKILDHFVGLGGAVSQFKTPRCVGPKNSSLIQILSSNVVKSYSSTAFC
B5: GmGH3-2: GH3 protein, accession XP_003521802.1 (protein)
chain: MLEKVEEFNMDKVIQEFELLTRDAERVQRETLKRILEDNASAEYLQSLGLNGRTDPESFKACVPMVTHKELEPYIYRIIDGDASPILTGKPITTMSLSSGTTQGKPKYVPWNDELYETTMQIYQTSFAFRNREFPIKNGKALSFIYGSKQLKTKGGLAARTATSNVFCSAGYKCAMRALQSQCCSPDEVIFGPDFFQSLYCHLLCGLIFREEVEFVSSTFAHSIVHAFRTFEQVWEELCNDIREGVLTRNVTVPSIRMAMSKLLKPNPELANAIHKKCTGLSNWYGLIPELFPNAKYIYGIMTGSMEPYLKKMRHYAGELPLLTADYGSSEGWIAANVNPQLPPEYATYAVLPHIGYFEFIPLLELENTKPLGLTQVKVGQEYEIVMTNPAGLYRYRLGDVVKVMGFHNSTPELKFIRRSSLLLNINIDKNTEKDLQLAVEAAGKLLAEEKLEVVDFSSQVDLSKEPGHYVIFWEISGDASQELLHECCNCLDKSFVDAGYTSSRKVNCIGALELRLVRRGTFQKILDHYLGLGTAVSQYKTPRCVGPTNTRVLQILSENVVNNYLSTAFN
modifications: Glycine max

Assay: LC-MS assay of GH3 conjugation of dicamba with Asp or Glu
Type: biochemical
Conditions: LC-MS; dicamba with Asp
Procedure: To detect and monitor the formation of acyl conjugates with 2,4-D or dicamba, a sensitive LC-MS method was developed using the respective amino acid conjugate standards. […] […] […] The supernatant was diluted 20× in water and then analyzed by LC-MS (AB Sciex 4000 QTrap coupled with Shimadzu Nexera UHPLC) using a Phenomenex Luna 3 μm Phenyl-Hexyl (00B-4256-Y0) column. The concentration of the conjugates was calculated based on the standards. Kinetic parameters were estimated by fitting initial velocity values to the Michaelis-Menten equation.
The GH3 superfamily conjugase activity analysis of IAA, 2,4-D or dicamba with Asp or Glu was done using LC-MS to analyze the final conjugate products as described in Example 1. Protein sequences of GH3 homologs (Table 3) were obtained from public databases (NCBI, http://www.ncbi.nlm.nih.gov/) by Blast analysis of AtGH3.17 protein sequence (accession # Q9FZ87). Coding sequences were designed for optimal expression in E. coli based on the protein sequences and synthesized. Synthesized coding sequences along with N-term his-tag coding sequences were cloned into a pET24a-based E. coli expression vector. The E. coli expression vectors were transformed into OverExpress C41(DE3) cells (Lucigen) for protein expression. Recombinant E. coli strains were inoculated into 5 ml LB media supplemented with 40 mg/L kanamycin and cultured overnight at 37° C. The overnight culture (0.5 mL) was inoculated into 50 mL LB medium plus 40 mg/L kanamycin and grown at 30° C. until OD600 reached 0.6. The cultures were induced with 0.2 mM IPTG at 16° C., 230 rpm overnight. Cells were harvested by centrifugation at 7,000 rpm for 10 mins. The cell pellet from 50 mL of cell culture was frozen and thawed twice and then lysed in 800 μL lysis buffer A (150 mM NaCl, 50 mM Tris-HCl pH 8.0, 5 mM MgCl2, 10% glycerol) plus 20 mM imidazole, 1 mM DTT, 0.2 mg/ml lysozyme, 1/200 protease inhibitor cocktail (EMD set3, EDTA free) and 1/2000 endonuclease. Lysate was then centrifuged at 13,000 rpm for 30 min at 4° C. Supernatant was loaded onto 200 μL Ni-NTA columns pre-equilibrated with buffer A with 20 mM imidazole at 4° C. Each column was then washed with (1) 2×800 μL of buffer A with 10 mM imidazole, (2) 2×800 μL of buffer A with 20 mM imidazole and (3) 2×200 μL of buffer A with 50 mM imidazole. Protein was eluted with 200 μL of buffer A with 250 mM imidazole. The concentration was measured by Bradford assay. Purified protein was used in conjugation reaction assays as described in example 1.

Question: Which “Detected auxin conjugates: Dicamba-Asp” value does the source give for B1 here?
Answer: The value was “No”.

Question: Which “Detected auxin conjugates: Dicamba-Asp” value does the source give for B2 here?
Answer: Its value is “No”.

Question: With B3 as the molecule, how does the “Detected auxin conjugates: Dicamba-Asp” value read?
Answer: Its value is “No”.

Question: For B4, which “Detected auxin conjugates: Dicamba-Asp” value is on record?
Answer: Its value is “No”.

Question: For B5, which “Detected auxin conjugates: Dicamba-Asp” value is on record?
Answer: The value was “No”.

Same assay, conditions: LC-MS; dicamba with Glu

Question: For B1, which “Detected auxin conjugates: Dicamba-Glu” value is on record?
Answer: Its value is “No”.

Question: For B2, which “Detected auxin conjugates: Dicamba-Glu” value is on record?
Answer: Its value is “No”.

Question: For B3, which “Detected auxin conjugates: Dicamba-Glu” value is on record?
Answer: Its value is “No”.

Question: Which “Detected auxin conjugates: Dicamba-Glu” value does the source give for B4 here?
Answer: The value was “No”.

Question: With B5 as the molecule, how does the “Detected auxin conjugates: Dicamba-Glu” value read?
Answer: The value was “No”.

Assay: LC-MS assay of GH3 conjugation of 2,4-D with Asp or Glu
Type: biochemical
Conditions: LC-MS; 2,4-D with Asp
Procedure, shortened: (§1)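 N-His-tagged GH3 homologs expressed in E. coli C41(DE3) and Ni-NTA purified (44 to 164 μg/mL) were incubated 3 hours at 30° C. in 20 mM Tris-HCl pH 8.0, 5 mM MgCl2, 1 mM DTT with 5 mM each of auxin, ATP and Asp or Glu. Conjugates were quantified by LC-MS against standards.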

Question: With B1 as the molecule, how does the “Detected auxin conjugates: 2,4-D-Asp” value read?
Answer: The value was “No”.

Question: For B2, which “Detected auxin conjugates: 2,4-D-Asp” value is on record?
Answer: Its value is “Yes”.

Question: Which “Detected auxin conjugates: 2,4-D-Asp” value does the source give for B3 here?
Answer: Its value is “Yes”.

Question: Which “Detected auxin conjugates: 2,4-D-Asp” value does the source give for B4 here?
Answer: Its value is “No”.

Question: Which “Detected auxin conjugates: 2,4-D-Asp” value does the source give for B5 here?
Answer: Its value is “No”.

Same assay, conditions: LC-MS; 2,4-D with Glu

Question: For B1, which “Detected auxin conjugates: 2,4-D-Glu” value is on record?
Answer: The value was “No”.

Question: Which “Detected auxin conjugates: 2,4-D-Glu” value does the source give for B2 here?
Answer: Its value is “Yes”.

Question: With B3 as the molecule, how does the “Detected auxin conjugates: 2,4-D-Glu” value read?
Answer: Its value is “Yes”.

Question: With B4 as the molecule, how does the “Detected auxin conjugates: 2,4-D-Glu” value read?
Answer: The value was “No”.

Question: With B5 as the molecule, how does the “Detected auxin conjugates: 2,4-D-Glu” value read?
Answer: Its value is “No”.

Assay: LC-MS assay of GH3 conjugation of IAA with Asp or Glu
Type: biochemical
Conditions: LC-MS; IAA with Asp
Procedure, shortened: as §1

Question: With B1 as the molecule, how does the “Detected auxin conjugates: IAA-Asp” value read?
Answer: Its value is “Yes”.

Question: For B2, which “Detected auxin conjugates: IAA-Asp” value is on record?
Answer: The value was “Yes”.

Question: With B3 as the molecule, how does the “Detected auxin conjugates: IAA-Asp” value read?
Answer: Its value is “Yes”.

Question: Which “Detected auxin conjugates: IAA-Asp” value does the source give for B4 here?
Answer: The value was “No”.

Question: For B5, which “Detected auxin conjugates: IAA-Asp” value is on record?
Answer: Its value is “Yes”.

Same assay, conditions: LC-MS; IAA with Glu

Question: For B1, which “Detected auxin conjugates: IAA-Glu” value is on record?
Answer: The value was “Yes”.

Question: Which “Detected auxin conjugates: IAA-Glu” value does the source give for B2 here?
Answer: The value was “Yes”.

Question: For B3, which “Detected auxin conjugates: IAA-Glu” value is on record?
Answer: The value was “Yes”.

Question: Which “Detected auxin conjugates: IAA-Glu” value does the source give for B4 here?
Answer: Its value is “No”.

Question: Which “Detected auxin conjugates: IAA-Glu” value does the source give for B5 here?
Answer: Its value is “No”.
